Residue numbers refer to the chain shown, from its start.
T1: human BMPRII protein (Sino Biological, #10551-H08H) (human, UniProt Q13873 27-150)
T1 sequence (looked up): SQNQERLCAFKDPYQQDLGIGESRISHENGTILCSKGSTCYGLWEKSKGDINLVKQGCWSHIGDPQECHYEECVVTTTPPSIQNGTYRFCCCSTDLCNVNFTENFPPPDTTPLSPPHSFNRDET

B1: DGL627 (bispecific antibody)
chain 1: not shown
chain 2: EVQLLESGGGLVQPGGSLRLSCAASGFTFSDYYMTWIRQAPGKGLEWVSSISGGSTYYADSRKGRFTISRDNSENTLYLQMNSLRAEDTAVYYCARDFGVAGWFGQYGMDVWGQGTLVTVSSGGGGSGGGGSGGGGSQSVLTQPPSASGTPGQRVTISCTGSSSNIGAGYDVHWYQQLPGTAPKLLIYRSNQRPSGVPDRFSGSKSGTSASLAISGLRSEDEADYYCSSYAGNYNLVFGGGTKLTVLDKTHTCPPCPAPEAAGAPSVFLFPPKPKDTLMISRTPEVTCVVVDVSHEDPEVKFNWYVDGVEVHNAKTKPREEQYNSTYRVVSVLTVLHQDWLNGKEYKCKVSNKALPAPIEKTISKAKGQPREPQVCTLPPSRDELTKNQVSLSCAVKGFYPSDIAVEWESNGQPENNYKTTPPVLDSDGSFFLVSKLTVDKSRWQQGNVFSCSVMHEALHNHYTQKSLSLSPGWSHPQFEK
B2: DGL625 (bispecific antibody)
chain 1: not shown
chain 2: B1 chain 2
B3: DGL628 (bispecific antibody)
chain 1: not shown
chain 2: B1 chain 2
B4: DGL629 (bispecific antibody)
chain 1: not shown
chain 2: B1 chain 2
B5: DGL635 (bispecific antibody)
chain 1: B1 chain 2
chain 2: not shown
B6: DGL626 (bispecific antibody)
chain 1: not shown
chain 2: B1 chain 2
B7: DGL633 (bispecific antibody)
chain 1: not shown
chain 2: EVQLLESGGGLVQPGGSLRLSCAASGFTFSNAWMNWVRQAPGKGLEWVSSISSSSSYIYYADSVKGRFTISRDNSKNTLYLQMNSLRAEDTAVYYCARAVAAGGMFWGLDQWGQGTLVTVTSSGGGGSGGGGSGGGGSQSVLTQPPSASGTPGQRVTISCSGSRSNIGSNSVHWYQQLPGTAPKLLIYGNSNRPSGVPDRFSGSKSGTSASLAISGLRSEDEADYYCQSYDSSLNDHVVFGGGTKLTVLDKTHTCPPCPAPEAAGAPSVFLFPPKPKDTLMISRTPEVTCVVVDVSHEDPEVKFNWYVDGVEVHNAKTKPREEQYNSTYRVVSVLTVLHQDWLNGKEYKCKVSNKALPAPIEKTISKAKGQPREPQVCTLPPSRDELTKNQVSLSCAVKGFYPSDIAVEWESNGQPENNYKTTPPVLDSDGSFFLVSKLTVDKSRWQQGNVFSCSVMHEALHNHYTQKSLSLSPGWSHPQFEK
B8: DGL641 (bispecific antibody)
chain 1: B7 chain 2
chain 2: not shown
B9: DGL634 (bispecific antibody)
chain 1: not shown
chain 2: B7 chain 2
B10: DGL644 (bispecific antibody)
chain 1: B7 chain 2 with A99S, V100N, A101G, A102S, M105S, F106T, W107S, G108P, Q111L
chain 2: not shown
B11: DGL645 (bispecific antibody)
chain 1: B7 chain 2 with A102G, G103T, G104S, F106W, W107Y
chain 2: not shown
B12: DGL649 (bispecific antibody)
chain 1: B7 chain 2 with N31L, S55T
chain 2: not shown
B13: DGL647 (bispecific antibody)
chain 1: B7 chain 2 with M105F
chain 2: not shown
B14: DGL648 (bispecific antibody)
chain 1: B7 chain 2 with M105L
chain 2: not shown

target: ALK-1/BMPR-2 receptor pair of the PathHunter U2Os dimerization cells (DiscoverX 93-0962C3) (UniProt P37023 22-503; Q13873 27-1038); experiment: cell-based or functional assay
Sequence (P37023 22-503, one chain of several): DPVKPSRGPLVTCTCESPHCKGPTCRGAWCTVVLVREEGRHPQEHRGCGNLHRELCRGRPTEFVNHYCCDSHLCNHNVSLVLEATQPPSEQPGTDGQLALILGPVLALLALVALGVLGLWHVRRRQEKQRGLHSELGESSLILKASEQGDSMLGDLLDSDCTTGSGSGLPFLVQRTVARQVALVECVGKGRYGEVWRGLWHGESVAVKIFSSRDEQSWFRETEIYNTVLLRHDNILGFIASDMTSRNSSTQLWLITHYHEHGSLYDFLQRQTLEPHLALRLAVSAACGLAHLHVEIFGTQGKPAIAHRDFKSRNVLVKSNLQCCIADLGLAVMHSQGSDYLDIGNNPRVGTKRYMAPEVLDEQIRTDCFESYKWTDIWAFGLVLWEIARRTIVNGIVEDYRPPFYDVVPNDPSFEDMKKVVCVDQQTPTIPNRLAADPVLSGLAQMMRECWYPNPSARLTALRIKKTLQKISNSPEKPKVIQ

Q: What does the source list for B1?
A: % Emax BMP9: 14%; Emax (RLU): 502000 RLU

Q: Which “% Emax BMP9” value does the source give for B2 here?
A: 17%

Q: And the “Emax (RLU)” value?
A: 615000 RLU

Q: Which results are given for B3?
A: % Emax BMP9: 24%; Emax (RLU): 884000 RLU

Q: B4 was tested. Which “% Emax BMP9” value did it give?
A: 12%

Q: And the “Emax (RLU)” value?
A: 424000 RLU

Q: Which results are given for B5?
A: % Emax BMP9: 141%; Emax (RLU): 2.61e+06 RLU

Q: What does the source list for B6?
A: % Emax BMP9: 7%; Emax (RLU): 258000 RLU

Q: With B7 as the binder, how does the “% Emax BMP9” value read?
A: 32%

Q: What about the “Emax (RLU)” value of the same binder?
A: 586000 RLU

Q: What does the source list for B8?
A: % Emax BMP9: 76%; Emax (RLU): 1.41e+06 RLU

Q: B9 was tested. Which “% Emax BMP9” value did it give?
A: 16%

Q: What about the “Emax (RLU)” value of the same binder?
A: 288000 RLU

Q: What does the source list for B10?
A: % Emax BMP9: 8%; Emax (RLU): 153000 RLU

Q: For B11, which “% Emax BMP9” value is on record?
A: 19%

Q: What about the “Emax (RLU)” value of the same binder?
A: 353000 RLU

Q: With B12 as the binder, how does the “% Emax BMP9” value read?
A: 35%

Q: What about the “Emax (RLU)” value of the same binder?
A: 648000 RLU

Q: Which results are given for B13?
A: % Emax BMP9: 79%; Emax (RLU): 1.46e+06 RLU

Q: How did the “% Emax BMP9” value turn out when B14 was run?
A: 78%

Q: And the “Emax (RLU)” value?
A: 1.45e+06 RLU

target: human ALK1 protein (Sino Biological, #10066-H08H) (human, UniProt P37023 22-118); experiment: ELISA, coated human ALK1
Method: (§1) These binders were then tested using an ELISA assay. High binding plates (Corning, 9018) were coated with either 2 μg/ml of human BMPRII protein (Sino Biological, #10551-H08H) or 2 μg/ml of human ALK1 protein (Sino Biological, #10066-H08H) overnight at 4C. The plates were then washed three times with wash buffer (R&D Systems, WA126). […] The plates were then washed three times with wash buffer and DGL antibodies or controls, which were diluted with PBS and 0.1% BSA. The antibodies were incubated for one hour at room temperature and then the plates were washed three times with wash buffer. The plates were then incubated with mouse anti-human IgG Fc secondary—HRP (diluted with PBS/0.1% BSA); 100 ul per well at 2 μg/ml and incubated at room temperature for one hour. The plate was washed three times in wash buffer and then 100 ul TMB (R&D Systems, DY9998B, substrate reagent pack). After the wells turn blue, 50 ul of stop solution (R&D Systems, DY994) was added to each well and the absorbance of the plate was read at 450 nm. results can be found in Table 8.

human ALK1 protein (Sino Biological, #10066-H08H), sequence (P37023 22-118 limits assumed): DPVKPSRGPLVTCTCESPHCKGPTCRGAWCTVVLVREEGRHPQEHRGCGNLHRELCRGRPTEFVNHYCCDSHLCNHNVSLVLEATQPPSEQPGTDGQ

Q: What does the source list for B1?
A: Abs450 1 nM: 0.05; Abs450 10 nM: 0.07; Abs450 100 nM: 0.07

Q: Which results are given for B2?
A: Abs450 1 nM: 0.07; Abs450 10 nM: 0.07; Abs450 100 nM: 0.11

Q: With B3 as the binder, how does the “Abs450 1 nM” value read?
A: 0.05

Q: What about the “Abs450 10 nM” value of the same binder?
A: 0.12

Q: And the “Abs450 100 nM” value?
A: 0.52

Q: With B4 as the binder, how does the “Abs450 1 nM” value read?
A: 0.08

Q: What about the “Abs450 10 nM” value of the same binder?
A: 0.08

Q: What about the “Abs450 100 nM” value of the same binder?
A: 0.08

Q: How did the “Abs450 1 nM” value turn out when B5 was run?
A: 0.09

Q: And the “Abs450 10 nM” value?
A: 0.29

Q: And the “Abs450 100 nM” value?
A: 1.17

Q: Which results are given for B6?
A: Abs450 1 nM: 0.06; Abs450 10 nM: 0.07; Abs450 100 nM: 0.06

Q: With B7 as the binder, how does the “Abs450 1 nM” value read?
A: 0.15

Q: What about the “Abs450 10 nM” value of the same binder?
A: 0.78

Q: What about the “Abs450 100 nM” value of the same binder?
A: 1.42

Q: For B8, which “Abs450 1 nM” value is on record?
A: 0.07

Q: And the “Abs450 10 nM” value?
A: 0.15

Q: What about the “Abs450 100 nM” value of the same binder?
A: 0.83

Q: What does the source list for B10?
A: Abs450 1 nM: 0.06; Abs450 10 nM: 0.1; Abs450 100 nM: 0.54

Q: With B11 as the binder, how does the “Abs450 1 nM” value read?
A: 0.07

Q: What about the “Abs450 10 nM” value of the same binder?
A: 0.13

Q: And the “Abs450 100 nM” value?
A: 0.59

Q: Which results are given for B12?
A: Abs450 1 nM: 0.07; Abs450 10 nM: 0.18; Abs450 100 nM: 0.81

Q: With B13 as the binder, how does the “Abs450 1 nM” value read?
A: 0.07

Q: What about the “Abs450 10 nM” value of the same binder?
A: 0.16

Q: And the “Abs450 100 nM” value?
A: 0.84

Q: How did the “Abs450 1 nM” value turn out when B14 was run?
A: 0.08

Q: What about the “Abs450 10 nM” value of the same binder?
A: 0.17

Q: And the “Abs450 100 nM” value?
A: 0.8

target: T1, human BMPRII protein (Sino Biological, …); experiment: ELISA, coated human BMPRII
Method: as §1

Q: For B1, which “Abs450 1 nM” value is on record?
A: 0.15

Q: What about the “Abs450 10 nM” value of the same binder?
A: 0.22

Q: What about the “Abs450 100 nM” value of the same binder?
A: 0.66

Q: B2 was tested. Which “Abs450 1 nM” value did it give?
A: 0.17

Q: What about the “Abs450 10 nM” value of the same binder?
A: 0.35

Q: And the “Abs450 100 nM” value?
A: 1.21

Q: With B3 as the binder, how does the “Abs450 1 nM” value read?
A: 0.17

Q: And the “Abs450 10 nM” value?
A: 0.27

Q: What about the “Abs450 100 nM” value of the same binder?
A: 0.8

Q: Which results are given for B4?
A: Abs450 1 nM: 0.18; Abs450 10 nM: 0.29; Abs450 100 nM: 0.9

Q: Which results are given for B5?
A: Abs450 1 nM: 0.15; Abs450 10 nM: 0.33; Abs450 100 nM: 1.17

Q: With B6 as the binder, how does the “Abs450 1 nM” value read?
A: 0.17

Q: And the “Abs450 10 nM” value?
A: 0.25

Q: What about the “Abs450 100 nM” value of the same binder?
A: 0.71

Q: What does the source list for B7?
A: Abs450 1 nM: 0.12; Abs450 10 nM: 0.14; Abs450 100 nM: 0.37

Q: For B8, which “Abs450 1 nM” value is on record?
A: 0.33

Q: What about the “Abs450 10 nM” value of the same binder?
A: 0.43

Q: And the “Abs450 100 nM” value?
A: 0.9

Q: For B9, which “Abs450 1 nM” value is on record?
A: 0.12

Q: What about the “Abs450 10 nM” value of the same binder?
A: 0.19

Q: And the “Abs450 100 nM” value?
A: 0.4

Q: With B10 as the binder, how does the “Abs450 1 nM” value read?
A: 0.23

Q: What about the “Abs450 10 nM” value of the same binder?
A: 0.2

Q: And the “Abs450 100 nM” value?
A: 0.17

Q: With B11 as the binder, how does the “Abs450 1 nM” value read?
A: 0.23

Q: And the “Abs450 10 nM” value?
A: 0.21

Q: What about the “Abs450 100 nM” value of the same binder?
A: 0.16

Q: Which “Abs450 1 nM” value does the source give for B12 here?
A: 0.3

Q: And the “Abs450 10 nM” value?
A: 0.32

Q: What about the “Abs450 100 nM” value of the same binder?
A: 0.76

Q: What does the source list for B13?
A: Abs450 1 nM: 0.25; Abs450 10 nM: 0.51; Abs450 100 nM: 1.9

Q: B14 was tested. Which “Abs450 1 nM” value did it give?
A: 0.24

Q: And the “Abs450 10 nM” value?
A: 0.33

Q: And the “Abs450 100 nM” value?
A: 0.77

— patent US20250002588A1 (DIAGONAL THERAPEUTICS, published 2025)
